What was measured:
KFtx series = assay type: cell-based; conditions: 72 hours
ERK = assay: Change in pERK/tERK by EGF stimulation (In-Cell ELISA); assay type: cell-based; conditions: all cells (Low, UCA1 Low, Empty Low, KFtx); 0.2 ng/μl EGF, 30 minutes; 10% or 0.5% FBS
Experimental: The KFtx series (Low, UCA1 Low, Empty Low, and KFtx) were seeded at a cell density of 6×10^3/well in 10% FBS-containing RPMI on a 96-well plate, and were then cultured at 37° C. for 12 hours. Thereafter, the medium was exchanged with RPMI containing 10% FBS or 0.5% FBS. The cells were further cultured at 37° C. for 24 hours, and the medium was then exchanged with another one, to result in an EGF concentration of 0.2 ng/μl. After 30 minutes of EGF stimulation, tERK (total-ERK) and pERK (phosphorylated-ERK) were measured using Pierce Colorimetric In-Cell ELISA Kits (n=3). […] In addition, it was confirmed that, in all cells, pERK was activated by EGF stimulation and the percentage of the pERK was increased.

B1: EGF (protein, UniProt P01133 23-1207, looked up)
Pro-epidermal growth factor: PQHWSCPEGTLAGNGNSTCVGPAPFLIFSHGNSIFRIDTEGTNYEQLVVDAGVSVIMDFHYNEKRIYWVDLERQLLQRVFLNGSRQERVCNIEKNVSGMAINWINEEVIWSNQQEGIITVTDMKGNNSHILLSALKYPANVAVDPVERFIFWSSEVAGSLYRADLDGVGVKALLETSEKITAVSLDVLDKRLFWIQYNREGSNSLICSCDYDGGSVHISKHPTQHNLFAMSLFGDRIFYSTWKMKTIWIANKHTGKDMVRINLHSSFVPLGELKVVHPLAQPKAEDDTWEPEQKLCKLRKGNCSSTVCGQDLQSHLCMCAEGYALSRDRKYCEDVNECAFWNHGCTLGCKNTPGSYYCTCPVGFVLLPDGKRCHQLVSCPRNVSECSHDCVLTSEGPLCFCPEGSVLERDGKTCSGCSSPDNGGCSQLCVPLSPVSWECDCFPGYDLQLDEKSCAASGPQPFLLFANSQDIRHMHFDGTDYGTLLSQQMGMVYALDHDPVENKIYFAHTALKWIERANMDGSQRERLIEEGVDVPEGLAVDWIGRRFYWTDRGKSLIGRSDLNGKRSKIITKENISQPRGIAVHPMAKRLFWTDTGINPRIESSSLQGLGRLVIASSDLIWPSGITIDFLTDKLYWCDAKQSVIEMANLDGSKRRRLTQNDVGHPFAVAVFEDYVWFSDWAMPSVMRVNKRTGKDRVRLQGSMLKPSSLVVVHPLAKPGADPCLYQNGGCEHICKKRLGTAWCSCREGFMKASDGKTCLALDGHQLLAGGEVDLKNQVTPLDILSKTRVSEDNITESQHMLVAEIMVSDQDDCAPVGCSMYARCISEGEDATCQCLKGFAGDGKLCSDIDECEMGVPVCPPASSKCINTEGGYVCRCSEGYQGDGIHCLDIDECQLGEHSCGENASCTNTEGGYTCMCAGRLSEPGLICPDSTPPPHLREDDHHYSVRNSDSECPLSHDGYCLHDGVCMYIEALDKYACNCVVGYIGERCQYRDLKWWELRHAGHGQQQKVIVVAVCVVVLVMLLLLSLWGAHYYRTQKLLSKNPKNPYEESSRDVRSRRPADTEDGMSSCPQPWFVVIKEHQDLKNGGQPVAGEDGQAADGSMQPTSWRQEPQLCGMGTEQGCWIPVSSDKGSCPQVMERSFHMPSYGTQTLEGGVEKPHSLLSANPLWQQRALDPPHQMELTQ
modifications: Pro-epidermal growth factor
- replication ability of the vaccinia virus by EGF stimulation (KFtx series): not enhanced
- percentage of the pERK (ERK): increased
